# Measurements reported in PMC9482650, “Quantitative fragmentomics allow affinity mapping of interactomes” (Nature Communications, 2022).
# T1: MPP2, Q14168
# T1 sequence (Q14168 180-250, limits assumed, looked up): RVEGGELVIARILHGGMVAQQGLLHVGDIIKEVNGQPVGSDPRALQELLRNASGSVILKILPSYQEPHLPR
# T2: DFNB31_1, Q9P202
# T2 sequence (Q9P202 135-233, limits assumed, looked up): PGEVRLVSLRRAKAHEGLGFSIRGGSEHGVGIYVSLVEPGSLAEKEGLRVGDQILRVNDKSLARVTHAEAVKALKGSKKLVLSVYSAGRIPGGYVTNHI
# T3: APBA2_1, Q99767
# T3 sequence (Q99767 563-664, limits assumed, looked up): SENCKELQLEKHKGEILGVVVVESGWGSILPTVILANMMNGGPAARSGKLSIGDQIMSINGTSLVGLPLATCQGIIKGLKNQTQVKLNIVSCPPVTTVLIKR
# T4: MPP6, Q9NZW5
# T4 sequence (Q9NZW5 125-219, limits assumed, looked up): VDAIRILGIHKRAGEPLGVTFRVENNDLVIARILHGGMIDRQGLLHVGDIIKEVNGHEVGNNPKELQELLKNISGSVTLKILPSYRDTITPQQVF
# T5: SNTB1, Q13884
# T5 sequence (Q13884 107-205, limits assumed, looked up): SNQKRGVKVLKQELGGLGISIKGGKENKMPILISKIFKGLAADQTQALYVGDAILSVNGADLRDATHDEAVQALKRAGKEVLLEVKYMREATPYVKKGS
# T6: DLG3_3, Q92796
# T6 sequence (Q92796 374-475, limits assumed, looked up): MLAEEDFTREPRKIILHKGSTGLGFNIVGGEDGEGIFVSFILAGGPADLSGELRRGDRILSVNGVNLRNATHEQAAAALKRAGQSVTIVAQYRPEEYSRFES
# T7: GRIP1_7, Q9Y3R0
# T7 sequence (Q9Y3R0 999-1096, limits assumed, looked up): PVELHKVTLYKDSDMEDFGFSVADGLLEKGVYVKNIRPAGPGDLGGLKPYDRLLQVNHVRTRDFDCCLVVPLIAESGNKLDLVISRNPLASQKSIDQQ
# T8: APBA2_2, Q99767
# T8 sequence (Q99767 654-744, limits assumed, looked up): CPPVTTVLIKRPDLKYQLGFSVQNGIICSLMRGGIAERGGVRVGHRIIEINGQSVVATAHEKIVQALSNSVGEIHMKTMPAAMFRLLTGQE
# T9: GRIP1_3, Q9Y3R0
# T9 sequence (Q9Y3R0 247-346, limits assumed, looked up): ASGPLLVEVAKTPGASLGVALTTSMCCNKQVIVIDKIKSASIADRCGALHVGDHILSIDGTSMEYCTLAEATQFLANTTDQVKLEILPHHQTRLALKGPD
# T10: LNX2_3, Q8N448
# T10 sequence (Q8N448 463-564, limits assumed, looked up): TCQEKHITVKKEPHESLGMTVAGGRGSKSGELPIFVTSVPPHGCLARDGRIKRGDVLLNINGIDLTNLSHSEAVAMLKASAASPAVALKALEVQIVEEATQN
# T11: GRIP1_2, Q9Y3R0
# T11 sequence (Q9Y3R0 145-248, limits assumed, looked up): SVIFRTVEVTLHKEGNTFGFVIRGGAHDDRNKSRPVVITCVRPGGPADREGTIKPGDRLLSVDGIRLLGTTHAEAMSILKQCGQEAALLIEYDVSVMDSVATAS
# T12: NHERF3_4, Q5T2W1
# T12 sequence (Q5T2W1 373-468, limits assumed, looked up): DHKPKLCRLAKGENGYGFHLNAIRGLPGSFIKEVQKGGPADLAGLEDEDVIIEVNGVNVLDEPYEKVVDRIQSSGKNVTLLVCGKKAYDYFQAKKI
# T13: ARHGEF11, O15085
# T13 sequence (O15085 42-136, limits assumed, looked up): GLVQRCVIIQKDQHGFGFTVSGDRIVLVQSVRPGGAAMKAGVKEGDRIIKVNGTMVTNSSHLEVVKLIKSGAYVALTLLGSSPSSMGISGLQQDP
# Target: LNX1_3, Q8TBB1
# Sequence (Q8TBB1 500-596): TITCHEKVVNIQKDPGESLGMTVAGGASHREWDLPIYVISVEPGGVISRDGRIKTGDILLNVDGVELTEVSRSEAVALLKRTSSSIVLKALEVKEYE
# Experiment: holdup assay
# Set-up: key: below the threshold = too weak to quantify, mostly under pKd 3.1 to 4
# Conditions: plain residues with an end cap or a label only (N-terminal biotin on a linker: ado-ado)
row,pKd,Binder
1,below the threshold,"NTLNRKTTPV [CACNG8, Q8WXS5]"
2,below the threshold,"ARGPPRESEV [FAM110D, Q8TAY7]"

# Target: T1, MPP2, Q14168
# Experiment: holdup assay
# Set-up: key: below the threshold = too weak to quantify, mostly under pKd 3.1 to 4
# Conditions: plain residues with an end cap or a label only (N-terminal biotin on a linker: ado-ado)
row,pKd,Binder
1,below the threshold,"NTLNRKTTPV [CACNG8, Q8WXS5]"
2,below the threshold,"ARGPPRESEV [FAM110D, Q8TAY7]"

# Target: GIPC2, Q8TF65
# Sequence (Q8TF65 112-203): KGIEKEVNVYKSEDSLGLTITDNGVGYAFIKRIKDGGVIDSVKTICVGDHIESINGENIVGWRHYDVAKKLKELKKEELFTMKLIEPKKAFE
# Experiment: holdup assay
# Set-up: key: below the threshold = too weak to quantify, mostly under pKd 3.1 to 4
# Conditions: plain residues with an end cap or a label only (N-terminal biotin on a linker: ado-ado)
row,pKd,Binder
1,below the threshold,"NTLNRKTTPV [CACNG8, Q8WXS5]"
2,4.32,"ARGPPRESEV [FAM110D, Q8TAY7]"

# Target: T2, DFNB31_1, Q9P202
# Experiment: holdup assay
# Set-up: key: below the threshold = too weak to quantify, mostly under pKd 3.1 to 4
# Conditions: plain residues with an end cap or a label only (N-terminal biotin on a linker: ado-ado)
row,pKd,Binder
1,3.95,"NTLNRKTTPV [CACNG8, Q8WXS5]"
2,3.75,"ARGPPRESEV [FAM110D, Q8TAY7]"

# Target: T3, APBA2_1, Q99767
# Experiment: holdup assay
# Set-up: key: below the threshold = too weak to quantify, mostly under pKd 3.1 to 4
# Conditions: plain residues with an end cap or a label only (N-terminal biotin on a linker: ado-ado)
row,pKd,Binder
1,below the threshold,"NTLNRKTTPV [CACNG8, Q8WXS5]"
2,below the threshold,"ARGPPRESEV [FAM110D, Q8TAY7]"

# Target: T4, MPP6, Q9NZW5
# Experiment: holdup assay
# Set-up: key: below the threshold = too weak to quantify, mostly under pKd 3.1 to 4
# Conditions: plain residues with an end cap or a label only (N-terminal biotin on a linker: ado-ado)
row,pKd,Binder
1,3.93,"NTLNRKTTPV [CACNG8, Q8WXS5]"
2,below the threshold,"ARGPPRESEV [FAM110D, Q8TAY7]"

# Target: GRID2IP_1, A4D2P6
# Sequence (A4D2P6 1-87): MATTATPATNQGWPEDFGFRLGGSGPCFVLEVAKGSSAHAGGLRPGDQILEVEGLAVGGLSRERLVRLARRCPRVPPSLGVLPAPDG
# Experiment: holdup assay
# Set-up: key: below the threshold = too weak to quantify, mostly under pKd 3.1 to 4
# Conditions: plain residues with an end cap or a label only (N-terminal biotin on a linker: ado-ado)
row,pKd,Binder
1,below the threshold,"NTLNRKTTPV [CACNG8, Q8WXS5]"
2,below the threshold,"ARGPPRESEV [FAM110D, Q8TAY7]"

# Target: T5, SNTB1, Q13884
# Experiment: holdup assay
# Set-up: key: below the threshold = too weak to quantify, mostly under pKd 3.1 to 4
# Conditions: plain residues with an end cap or a label only (N-terminal biotin on a linker: ado-ado)
row,pKd,Binder
1,4.07,"NTLNRKTTPV [CACNG8, Q8WXS5]"
2,5.12,"ARGPPRESEV [FAM110D, Q8TAY7]"

# Target: T6, DLG3_3, Q92796
# Experiment: holdup assay
# Set-up: key: below the threshold = too weak to quantify, mostly under pKd 3.1 to 4
# Conditions: plain residues with an end cap or a label only (N-terminal biotin on a linker: ado-ado)
row,pKd,Binder
1,5.08,"NTLNRKTTPV [CACNG8, Q8WXS5]"
2,4.48,"ARGPPRESEV [FAM110D, Q8TAY7]"

# Target: T7, GRIP1_7, Q9Y3R0
# Experiment: holdup assay
# Set-up: key: below the threshold = too weak to quantify, mostly under pKd 3.1 to 4
# Conditions: plain residues with an end cap or a label only (N-terminal biotin on a linker: ado-ado)
row,pKd,Binder
1,3.49,"NTLNRKTTPV [CACNG8, Q8WXS5]"
2,below the threshold,"ARGPPRESEV [FAM110D, Q8TAY7]"

# Target: T8, APBA2_2, Q99767
# Experiment: holdup assay
# Set-up: key: below the threshold = too weak to quantify, mostly under pKd 3.1 to 4
# Conditions: plain residues with an end cap or a label only (N-terminal biotin on a linker: ado-ado)
row,pKd,Binder
1,below the threshold,"NTLNRKTTPV [CACNG8, Q8WXS5]"
2,below the threshold,"ARGPPRESEV [FAM110D, Q8TAY7]"

# Target: CASK, O14936
# Sequence (O14936 487-570): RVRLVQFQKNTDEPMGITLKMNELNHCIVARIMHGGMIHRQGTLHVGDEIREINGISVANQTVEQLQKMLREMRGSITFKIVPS
# Experiment: holdup assay
# Set-up: key: below the threshold = too weak to quantify, mostly under pKd 3.1 to 4
# Conditions: plain residues with an end cap or a label only (N-terminal biotin on a linker: ado-ado)
row,pKd,Binder
1,below the threshold,"NTLNRKTTPV [CACNG8, Q8WXS5]"
2,below the threshold,"ARGPPRESEV [FAM110D, Q8TAY7]"

# Target: T9, GRIP1_3, Q9Y3R0
# Experiment: holdup assay
# Set-up: key: below the threshold = too weak to quantify, mostly under pKd 3.1 to 4
# Conditions: plain residues with an end cap or a label only (N-terminal biotin on a linker: ado-ado)
row,pKd,Binder
1,below the threshold,"NTLNRKTTPV [CACNG8, Q8WXS5]"
2,below the threshold,"ARGPPRESEV [FAM110D, Q8TAY7]"

# Target: T10, LNX2_3, Q8N448
# Experiment: holdup assay
# Set-up: key: below the threshold = too weak to quantify, mostly under pKd 3.1 to 4
# Conditions: plain residues with an end cap or a label only (N-terminal biotin on a linker: ado-ado)
row,pKd,Binder
1,below the threshold,"NTLNRKTTPV [CACNG8, Q8WXS5]"
2,below the threshold,"ARGPPRESEV [FAM110D, Q8TAY7]"

# Target: T11, GRIP1_2, Q9Y3R0
# Experiment: holdup assay
# Set-up: key: below the threshold = too weak to quantify, mostly under pKd 3.1 to 4
# Conditions: plain residues with an end cap or a label only (N-terminal biotin on a linker: ado-ado)
row,pKd,Binder
1,3.61,"NTLNRKTTPV [CACNG8, Q8WXS5]"
2,below the threshold,"ARGPPRESEV [FAM110D, Q8TAY7]"

# Target: DLG4_1, P78352
# Sequence (P78352 62-152): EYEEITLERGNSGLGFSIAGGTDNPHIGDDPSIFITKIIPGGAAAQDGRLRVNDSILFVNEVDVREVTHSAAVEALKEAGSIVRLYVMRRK
# Experiment: holdup assay
# Set-up: key: below the threshold = too weak to quantify, mostly under pKd 3.1 to 4
# Conditions: plain residues with an end cap or a label only (N-terminal biotin on a linker: ado-ado)
row,pKd,Binder
1,4.4,"NTLNRKTTPV [CACNG8, Q8WXS5]"
2,4.83,"ARGPPRESEV [FAM110D, Q8TAY7]"

# Target: TJP1_3, Q07157
# Sequence (Q07157 416-512): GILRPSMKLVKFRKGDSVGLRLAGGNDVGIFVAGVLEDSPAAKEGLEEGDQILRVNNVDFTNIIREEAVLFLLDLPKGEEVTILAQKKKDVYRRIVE
# Experiment: holdup assay
# Set-up: key: below the threshold = too weak to quantify, mostly under pKd 3.1 to 4
# Conditions: plain residues with an end cap or a label only (N-terminal biotin on a linker: ado-ado)
row,pKd,Binder
1,below the threshold,"NTLNRKTTPV [CACNG8, Q8WXS5]"
2,below the threshold,"ARGPPRESEV [FAM110D, Q8TAY7]"

# Target: T12, NHERF3_4, Q5T2W1
# Experiment: holdup assay
# Set-up: key: below the threshold = too weak to quantify, mostly under pKd 3.1 to 4
# Conditions: plain residues with an end cap or a label only (N-terminal biotin on a linker: ado-ado)
row,pKd,Binder
1,3.66,"NTLNRKTTPV [CACNG8, Q8WXS5]"
2,below the threshold,"ARGPPRESEV [FAM110D, Q8TAY7]"

# Target: DLG1_3, Q12959
# Sequence (Q12959 457-571): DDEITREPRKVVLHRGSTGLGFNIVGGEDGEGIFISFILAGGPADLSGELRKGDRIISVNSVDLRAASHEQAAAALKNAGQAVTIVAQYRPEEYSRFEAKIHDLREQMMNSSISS
# Experiment: holdup assay
# Set-up: key: below the threshold = too weak to quantify, mostly under pKd 3.1 to 4
# Conditions: plain residues with an end cap or a label only (N-terminal biotin on a linker: ado-ado)
row,pKd,Binder
1,4.33,"NTLNRKTTPV [CACNG8, Q8WXS5]"
2,4.36,"ARGPPRESEV [FAM110D, Q8TAY7]"

# Target: MAST2, Q6P0Q8
# Sequence (Q6P0Q8 1099-1202): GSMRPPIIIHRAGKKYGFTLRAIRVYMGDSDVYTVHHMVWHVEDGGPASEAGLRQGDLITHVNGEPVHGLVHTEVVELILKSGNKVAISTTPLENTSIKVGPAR
# Experiment: holdup assay
# Set-up: key: below the threshold = too weak to quantify, mostly under pKd 3.1 to 4
# Conditions: plain residues with an end cap or a label only (N-terminal biotin on a linker: ado-ado)
row,pKd,Binder
1,4.83,"NTLNRKTTPV [CACNG8, Q8WXS5]"
2,4.89,"ARGPPRESEV [FAM110D, Q8TAY7]"

# Target: NOS1, P29475
# Sequence (P29475 9-101): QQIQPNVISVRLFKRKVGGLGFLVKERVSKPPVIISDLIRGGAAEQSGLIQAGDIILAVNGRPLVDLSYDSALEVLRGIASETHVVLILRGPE
# Experiment: holdup assay
# Set-up: key: below the threshold = too weak to quantify, mostly under pKd 3.1 to 4
# Conditions: plain residues with an end cap or a label only (N-terminal biotin on a linker: ado-ado)
row,pKd,Binder
1,4.04,"NTLNRKTTPV [CACNG8, Q8WXS5]"
2,3.77,"ARGPPRESEV [FAM110D, Q8TAY7]"

# Target: GORASP2, Q9H8Y8
# Experiment: holdup assay
# Set-up: key: below the threshold = too weak to quantify, mostly under pKd 3.1 to 4
# Conditions: plain residues with an end cap or a label only (N-terminal biotin on a linker: ado-ado)
row,pKd,Binder
1,below the threshold,"NTLNRKTTPV [CACNG8, Q8WXS5]"
2,below the threshold,"ARGPPRESEV [FAM110D, Q8TAY7]"

# Target: IL16_4, Q14005
# Sequence (Q14005 1229-1329): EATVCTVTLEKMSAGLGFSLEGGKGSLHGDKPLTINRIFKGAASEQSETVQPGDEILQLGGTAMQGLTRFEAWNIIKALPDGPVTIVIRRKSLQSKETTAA
# Experiment: holdup assay
# Set-up: key: below the threshold = too weak to quantify, mostly under pKd 3.1 to 4
# Conditions: plain residues with an end cap or a label only (N-terminal biotin on a linker: ado-ado)
row,pKd,Binder
1,3.59,"NTLNRKTTPV [CACNG8, Q8WXS5]"
2,below the threshold,"ARGPPRESEV [FAM110D, Q8TAY7]"

# Target: T13, ARHGEF11, O15085
# Experiment: holdup assay
# Set-up: key: below the threshold = too weak to quantify, mostly under pKd 3.1 to 4
# Conditions: plain residues with an end cap or a label only (N-terminal biotin on a linker: ado-ado)
row,pKd,Binder
1,4.08,"NTLNRKTTPV [CACNG8, Q8WXS5]"
2,4,"ARGPPRESEV [FAM110D, Q8TAY7]"
